Assay results from ChEMBL document CHEMBL1132182, “2,6-Difluorophenol as a bioisostere of a carboxylic acid: bioisosteric analogues of gamma-aminobutyric acid” (J Med Chem, 1999).

Tested on: NCCCC(=O)O
Description: Michaelis-Menten constant of the compound.

Sequence of 4-aminobutyrate aminotransferase, mitochondrial (Sus scrofa), P80147 (P80147 whole entry): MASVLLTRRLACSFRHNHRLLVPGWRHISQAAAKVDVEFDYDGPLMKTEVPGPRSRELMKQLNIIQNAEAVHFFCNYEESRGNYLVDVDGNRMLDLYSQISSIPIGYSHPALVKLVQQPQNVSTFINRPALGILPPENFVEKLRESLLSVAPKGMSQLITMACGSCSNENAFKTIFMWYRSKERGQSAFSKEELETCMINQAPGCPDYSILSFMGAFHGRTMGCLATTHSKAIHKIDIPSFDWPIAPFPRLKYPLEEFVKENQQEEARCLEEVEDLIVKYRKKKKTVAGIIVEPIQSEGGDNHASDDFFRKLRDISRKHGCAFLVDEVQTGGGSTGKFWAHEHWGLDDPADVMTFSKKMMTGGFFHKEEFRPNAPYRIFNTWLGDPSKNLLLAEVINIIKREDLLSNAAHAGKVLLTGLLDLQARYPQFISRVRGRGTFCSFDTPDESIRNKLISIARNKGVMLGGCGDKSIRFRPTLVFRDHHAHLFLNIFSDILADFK

Question: For “4-aminobutyrate aminotransferase, mitochondrial (Sus scrofa), P80147”, which Km is on record?
Answer: 2500 µM
